B1: AVR21 with I319N, Y377F (receptor)
chain: MGSAGESDQNTLPKHEAQLNVYVLLVPPKGEASTYDWQLITHPRDYSGEMEGEHSQILKLSNLTPGLFEYRAVVEGQNAHSEGYVNVTVEPEPRKNRPPIAIVSPQFQEISLPTTSTVIDGSQSTDDDKIVQYHWEELKGPLREEKISEDTAILKLSQLVPGNYTFRLTVVDTDGATDSTTADLTVNKAVDHHHHHH
B2: AVR21 with K338R, A461P (receptor)
chain: MGSAGESDQITLPKHEAQLNVYVLLVPPRGEASTYDWQLITHPRDYSGEMEGEHSQILKLSNLTPGLYEYRAVVEGQNAHSEGYVNVTVEPEPRKNRPPIAIVSPQFQEISLPTTSTVIDGSQSTDDDKIVQYHWEELKGPLREEKISEDTPILKLSQLVPGNYTFRLTVVDTDGATDSTTADLTVNKAVDHHHHHH
B3: AVR21 with E340G (receptor)
chain: MGSAGESDQITLPKHEAQLNVYVLLVPPKGGASTYDWQLITHPRDYSGEMEGEHSQILKLSNLTPGLYEYRAVVEGQNAHSEGYVNVTVEPEPRKNRPPIAIVSPQFQEISLPTTSTVIDGSQSTDDDKIVQYHWEELKGPLREEKISEDTAILKLSQLVPGNYTFRLTVVDTDGATDSTTADLTVNKAVDHHHHHH
B4: AVR21 with T343A, K(N)371D (receptor)
chain: MGSAGESDQITLPKHEAQLNVYVLLVPPKGEASAYDWQLITHPRDYSGEMEGEHSQILKLSDLTPGLYEYRAVVEGQNAHSEGYVNVTVEPEPRKNRPPIAIVSPQFQEISLPTTSTVIDGSQSTDDDKIVQYHWEELKGPLREEKISEDTAILKLSQLVPGNYTFRLTVVDTDGATDSTTADLTVNKAVDHHHHHH
B5: AVR21 with Y344F, T350A, Y377N (receptor)
chain: MGSAGESDQITLPKHEAQLNVYVLLVPPKGEASTFDWQLIAHPRDYSGEMEGEHSQILKLSNLTPGLNEYRAVVEGQNAHSEGYVNVTVEPEPRKNRPPIAIVSPQFQEISLPTTSTVIDGSQSTDDDKIVQYHWEELKGPLREEKISEDTAILKLSQLVPGNYTFRLTVVDTDGATDSTTADLTVNKAVDHHHHHH
B6: AVR21 with D345G, E454D (receptor)
chain: MGSAGESDQITLPKHEAQLNVYVLLVPPKGEASTYGWQLITHPRDYSGEMEGEHSQILKLSNLTPGLYEYRAVVEGQNAHSEGYVNVTVEPEPRKNRPPIAIVSPQFQEISLPTTSTVIDGSQSTDDDKIVQYHWEELKGPLREDKISEDTAILKLSQLVPGNYTFRLTVVDTDGATDSTTADLTVNKAVDHHHHHH
B7: AVR21 with Q347K, N472K (receptor)
chain: MGSAGESDQITLPKHEAQLNVYVLLVPPKGEASTYDWKLITHPRDYSGEMEGEHSQILKLSNLTPGLYEYRAVVEGQNAHSEGYVNVTVEPEPRKNRPPIAIVSPQFQEISLPTTSTVIDGSQSTDDDKIVQYHWEELKGPLREEKISEDTAILKLSQLVPGKYTFRLTVVDTDGATDSTTADLTVNKAVDHHHHHH
B8: AVR21 with E360D, H389R (receptor)
chain: MGSAGESDQITLPKHEAQLNVYVLLVPPKGEASTYDWQLITHPRDYSGEMDGEHSQILKLSNLTPGLYEYRAVVEGQNARSEGYVNVTVEPEPRKNRPPIAIVSPQFQEISLPTTSTVIDGSQSTDDDKIVQYHWEELKGPLREEKISEDTAILKLSQLVPGNYTFRLTVVDTDGATDSTTADLTVNKAVDHHHHHH
B9: AVR21 with Q365R, V(A)381T, K497E (receptor)
chain: MGSAGESDQITLPKHEAQLNVYVLLVPPKGEASTYDWQLITHPRDYSGEMEGEHSRILKLSNLTPGLYEYRTVVEGQNAHSEGYVNVTVEPEPRKNRPPIAIVSPQFQEISLPTTSTVIDGSQSTDDDKIVQYHWEELKGPLREEKISEDTAILKLSQLVPGNYTFRLTVVDTDGATDSTTADLTVNEAVDHHHHHH
B10: AVR21 with I366F, D435A (receptor)
chain: MGSAGESDQITLPKHEAQLNVYVLLVPPKGEASTYDWQLITHPRDYSGEMEGEHSQFLKLSNLTPGLYEYRAVVEGQNAHSEGYVNVTVEPEPRKNRPPIAIVSPQFQEISLPTTSTVIDGSQSTADDKIVQYHWEELKGPLREEKISEDTAILKLSQLVPGNYTFRLTVVDTDGATDSTTADLTVNKAVDHHHHHH
B11: AVR21 with L367P (receptor)
chain: MGSAGESDQITLPKHEAQLNVYVLLVPPKGEASTYDWQLITHPRDYSGEMEGEHSQIPKLSNLTPGLYEYRAVVEGQNAHSEGYVNVTVEPEPRKNRPPIAIVSPQFQEISLPTTSTVIDGSQSTDDDKIVQYHWEELKGPLREEKISEDTAILKLSQLVPGNYTFRLTVVDTDGATDSTTADLTVNKAVDHHHHHH
B12: AVR21 with L321Q (receptor)
chain: MGSAGESDQITQPKHEAQLNVYVLLVPPKGEASTYDWQLITHPRDYSGEMEGEHSQILKLSNLTPGLYEYRAVVEGQNAHSEGYVNVTVEPEPRKNRPPIAIVSPQFQEISLPTTSTVIDGSQSTDDDKIVQYHWEELKGPLREEKISEDTAILKLSQLVPGNYTFRLTVVDTDGATDSTTADLTVNKAVDHHHHHH
B13: AVR21 with L367P, V412A (receptor)
chain: MGSAGESDQITLPKHEAQLNVYVLLVPPKGEASTYDWQLITHPRDYSGEMEGEHSQIPKLSNLTPGLYEYRAVVEGQNAHSEGYVNVTVEPEPRKNRPPIAIASPQFQEISLPTTSTVIDGSQSTDDDKIVQYHWEELKGPLREEKISEDTAILKLSQLVPGNYTFRLTVVDTDGATDSTTADLTVNKAVDHHHHHH
B14: AVR21 with L369S (receptor)
chain: MGSAGESDQITLPKHEAQLNVYVLLVPPKGEASTYDWQLITHPRDYSGEMEGEHSQILKSSNLTPGLYEYRAVVEGQNAHSEGYVNVTVEPEPRKNRPPIAIVSPQFQEISLPTTSTVIDGSQSTDDDKIVQYHWEELKGPLREEKISEDTAILKLSQLVPGNYTFRLTVVDTDGATDSTTADLTVNKAVDHHHHHH
B15: AVR21 with K(N)371S, E453D, S466T (receptor)
chain: MGSAGESDQITLPKHEAQLNVYVLLVPPKGEASTYDWQLITHPRDYSGEMEGEHSQILKLSSLTPGLYEYRAVVEGQNAHSEGYVNVTVEPEPRKNRPPIAIVSPQFQEISLPTTSTVIDGSQSTDDDKIVQYHWEELKGPLRDEKISEDTAILKLTQLVPGNYTFRLTVVDTDGATDSTTADLTVNKAVDHHHHHH
B16: AVR21 with L376P (receptor)
chain: MGSAGESDQITLPKHEAQLNVYVLLVPPKGEASTYDWQLITHPRDYSGEMEGEHSQILKLSNLTPGPYEYRAVVEGQNAHSEGYVNVTVEPEPRKNRPPIAIVSPQFQEISLPTTSTVIDGSQSTDDDKIVQYHWEELKGPLREEKISEDTAILKLSQLVPGNYTFRLTVVDTDGATDSTTADLTVNKAVDHHHHHH
B17: AVR21 with L376P, P402S (receptor)
chain: MGSAGESDQITLPKHEAQLNVYVLLVPPKGEASTYDWQLITHPRDYSGEMEGEHSQILKLSNLTPGPYEYRAVVEGQNAHSEGYVNVTVEPESRKNRPPIAIVSPQFQEISLPTTSTVIDGSQSTDDDKIVQYHWEELKGPLREEKISEDTAILKLSQLVPGNYTFRLTVVDTDGATDSTTADLTVNKAVDHHHHHH
B18: AVR21 with E378G (receptor)
chain: MGSAGESDQITLPKHEAQLNVYVLLVPPKGEASTYDWQLITHPRDYSGEMEGEHSQILKLSNLTPGLYGYRAVVEGQNAHSEGYVNVTVEPEPRKNRPPIAIVSPQFQEISLPTTSTVIDGSQSTDDDKIVQYHWEELKGPLREEKISEDTAILKLSQLVPGNYTFRLTVVDTDGATDSTTADLTVNKAVDHHHHHH
B19: AVR21 with F(Y)379S (receptor)
chain: MGSAGESDQITLPKHEAQLNVYVLLVPPKGEASTYDWQLITHPRDYSGEMEGEHSQILKLSNLTPGLYESRAVVEGQNAHSEGYVNVTVEPEPRKNRPPIAIVSPQFQEISLPTTSTVIDGSQSTDDDKIVQYHWEELKGPLREEKISEDTAILKLSQLVPGNYTFRLTVVDTDGATDSTTADLTVNKAVDHHHHHH
B20: AVR21 with I(V)382I (receptor)
chain: MGSAGESDQITLPKHEAQLNVYVLLVPPKGEASTYDWQLITHPRDYSGEMEGEHSQILKLSNLTPGLYEYRAIVEGQNAHSEGYVNVTVEPEPRKNRPPIAIVSPQFQEISLPTTSTVIDGSQSTDDDKIVQYHWEELKGPLREEKISEDTAILKLSQLVPGNYTFRLTVVDTDGATDSTTADLTVNKAVDHHHHHH
B21: AVR21 with E384D, V396E (receptor)
chain: MGSAGESDQITLPKHEAQLNVYVLLVPPKGEASTYDWQLITHPRDYSGEMEGEHSQILKLSNLTPGLYEYRAVVDGQNAHSEGYVNETVEPEPRKNRPPIAIVSPQFQEISLPTTSTVIDGSQSTDDDKIVQYHWEELKGPLREEKISEDTAILKLSQLVPGNYTFRLTVVDTDGATDSTTADLTVNKAVDHHHHHH
B22: AVR21 with T397A (receptor)
chain: MGSAGESDQITLPKHEAQLNVYVLLVPPKGEASTYDWQLITHPRDYSGEMEGEHSQILKLSNLTPGLYEYRAVVEGQNAHSEGYVNVAVEPEPRKNRPPIAIVSPQFQEISLPTTSTVIDGSQSTDDDKIVQYHWEELKGPLREEKISEDTAILKLSQLVPGNYTFRLTVVDTDGATDSTTADLTVNKAVDHHHHHH
B23: AVR21 with L321Q, T343S (receptor)
chain: MGSAGESDQITQPKHEAQLNVYVLLVPPKGEASSYDWQLITHPRDYSGEMEGEHSQILKLSNLTPGLYEYRAVVEGQNAHSEGYVNVTVEPEPRKNRPPIAIVSPQFQEISLPTTSTVIDGSQSTDDDKIVQYHWEELKGPLREEKISEDTAILKLSQLVPGNYTFRLTVVDTDGATDSTTADLTVNKAVDHHHHHH
B24: AVR21 with T397S (receptor)
chain: MGSAGESDQITLPKHEAQLNVYVLLVPPKGEASTYDWQLITHPRDYSGEMEGEHSQILKLSNLTPGLYEYRAVVEGQNAHSEGYVNVSVEPEPRKNRPPIAIVSPQFQEISLPTTSTVIDGSQSTDDDKIVQYHWEELKGPLREEKISEDTAILKLSQLVPGNYTFRLTVVDTDGATDSTTADLTVNKAVDHHHHHH

Each binder was assayed against VLP2 (virus-like particles, capsid protein particles of AAV serotype 2) (AAV serotype 2 (AAV2)) (UniProt P03135) (assay: ELISA on immobilised VLP2 (culture supernatant, anti-His detection); A450 after 1:1 0.5 M NaOH, 30 min, 30°C divided by A450 untreated).
Sequence of UniProt P03135 (P03135 whole entry): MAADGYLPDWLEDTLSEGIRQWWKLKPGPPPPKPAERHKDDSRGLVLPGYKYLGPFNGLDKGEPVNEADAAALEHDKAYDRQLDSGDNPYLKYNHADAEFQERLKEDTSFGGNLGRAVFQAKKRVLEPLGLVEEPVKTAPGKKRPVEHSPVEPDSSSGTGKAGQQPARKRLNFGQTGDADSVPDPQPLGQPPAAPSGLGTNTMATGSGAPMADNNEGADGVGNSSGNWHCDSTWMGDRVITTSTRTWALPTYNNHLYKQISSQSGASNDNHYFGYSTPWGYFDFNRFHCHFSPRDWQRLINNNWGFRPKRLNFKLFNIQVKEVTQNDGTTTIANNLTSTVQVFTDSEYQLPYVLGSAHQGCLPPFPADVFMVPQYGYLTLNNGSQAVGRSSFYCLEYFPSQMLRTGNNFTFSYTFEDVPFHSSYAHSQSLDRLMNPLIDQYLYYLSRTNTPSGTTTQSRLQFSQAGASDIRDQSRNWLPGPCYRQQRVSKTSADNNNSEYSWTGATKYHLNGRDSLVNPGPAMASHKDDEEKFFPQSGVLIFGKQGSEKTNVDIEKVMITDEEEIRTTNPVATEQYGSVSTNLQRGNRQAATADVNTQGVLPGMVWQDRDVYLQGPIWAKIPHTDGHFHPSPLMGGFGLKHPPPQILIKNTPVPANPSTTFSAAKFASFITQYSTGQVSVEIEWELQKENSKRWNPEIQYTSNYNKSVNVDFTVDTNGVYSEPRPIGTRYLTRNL
B1 gave a Remaining activity [%] of 45.1%.
For B2, the Remaining activity [%] was 36.4%.
For B3, the Remaining activity [%] was 28.1%.
Binder B4 has a Remaining activity [%] of 40.5%.
Binder B5 has a Remaining activity [%] of 34.4%.
Work on B6 yielded a Remaining activity [%] of 61.7%.
B7 was tested, and the Remaining activity [%] was 58.9%.
In the case of B8, the Remaining activity [%] is reported as 46.7%.
B9 was tested, and the Remaining activity [%] was 42%.
Work on B10 yielded a Remaining activity [%] of 38.4%.
With B11 the Remaining activity [%] was 35.7%.
Work on B12 yielded a Remaining activity [%] of 34.2%.
In the case of B13, the Remaining activity [%] is reported as 35.8%.
B14 was tested, and the Remaining activity [%] was 51.4%.
B15 gave a Remaining activity [%] of 57.3%.
B16 gave a Remaining activity [%] of 42.6%.
Work on B17 yielded a Remaining activity [%] of 35.1%.
B18 showed a Remaining activity [%] of 58%.
B19 gave a Remaining activity [%] of 54.9%.
B20 showed a Remaining activity [%] of 32.8%.
B21 was tested, and the Remaining activity [%] was 45.3%.
B22 showed a Remaining activity [%] of 40.4%.
B23 gave a Remaining activity [%] of 50.4%.
With B24 the Remaining activity [%] was 38.4%.
